Measurements reported in IntAct's records for PubMed 19182799.

B1: Mitochondrial intermembrane space import and assembly protein 40 (Saccharomyces cerevisiae), P36046 (parent)
chain: MLRNLVVRNACRNRPSIQVARGLCRHQTRRLMASSPQFGRNSNQEKTAGFIMGILSMAGALYFIAPNRKPLFASRKVESDKTAEEELSSGGEQSPENEDDNNSKSDENGDDNDSKNDETEAGPQLGGDKIGASKVAEDGELVVLAEEDNKSSEDKDTDESKVSTKDDEQSNEDNATANNQKDENISSENSEENTSDKTLDNNAGSSEKKDPEHSDDEKSQQGQSDDKTTTEDNNGEEESSKKTVSDSENSAKQSESSDEEKEELRKQEEKQMGPTEEEVQHEGAYNPDTGEINWDCPCLGGMAHGPCGEEFKSAFSCFVYSEAEPKGIDCVEKFQHMQDCFRKYPEHYAEQLKETSDDEEPQDKVKVNTIESAPNVSSAKENAAKKAEQSDVKKEPLNEESKP
partner: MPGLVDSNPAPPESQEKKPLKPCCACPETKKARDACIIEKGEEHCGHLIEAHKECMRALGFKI
B2: Mitochondrial intermembrane space import and assembly protein 40 (Saccharomyces cerevisiae), P36046 (parent)
chain: B1 chain
partner: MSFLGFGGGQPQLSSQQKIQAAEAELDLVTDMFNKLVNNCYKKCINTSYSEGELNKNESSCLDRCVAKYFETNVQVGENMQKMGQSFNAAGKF

Variants of: B1
Details: with cox17_human COX17, Q14061

effect of a mutation on the interaction	Variant
disrupting interaction	MLRNLVVRNACRNRPSIQVARGLCRHQTRRLMASSPQFGRNSNQEKTAGFIMGILSMAGALYFIAPNRKPLFASRKVESDKTAEEELSSGGEQSPENEDDNNSKSDENGDDNDSKNDETEAGPQLGGDKIGASKVAEDGELVVLAEEDNKSSEDKDTDESKVSTKDDEQSNEDNATANNQKDENISSENSEENTSDKTLDNNAGSSEKKDPEHSDDEKSQQGQSDDKTTTEDNNGEEESSKKTVSDSENSAKQSESSDEEKEELRKQEEKQMGPTEEEVQHEGAYNPDTGEINWDSPSLGGMAHGPCGEEFKSAFSCFVYSEAEPKGIDCVEKFQHMQDCFRKYPEHYAEQLKETSDDEEPQDKVKVNTIESAPNVSSAKENAAKKAEQSDVKKEPLNEESKP [C296S;C298S]
decreasing interaction	MLRNLVVRNACRNRPSIQVARGLCRHQTRRLMASSPQFGRNSNQEKTAGFIMGILSMAGALYFIAPNRKPLFASRKVESDKTAEEELSSGGEQSPENEDDNNSKSDENGDDNDSKNDETEAGPQLGGDKIGASKVAEDGELVVLAEEDNKSSEDKDTDESKVSTKDDEQSNEDNATANNQKDENISSENSEENTSDKTLDNNAGSSEKKDPEHSDDEKSQQGQSDDKTTTEDNNGEEESSKKTVSDSENSAKQSESSDEEKEELRKQEEKQMGPTEEEVQHEGAYNPDTGEINWDCPSLGGMAHGPCGEEFKSAFSCFVYSEAEPKGIDCVEKFQHMQDCFRKYPEHYAEQLKETSDDEEPQDKVKVNTIESAPNVSSAKENAAKKAEQSDVKKEPLNEESKP [C298S]

Variants of: B2
Details: with tim10_yeast TIM10, P87108

effect of a mutation on the interaction	Variant
disrupting interaction	MLRNLVVRNACRNRPSIQVARGLCRHQTRRLMASSPQFGRNSNQEKTAGFIMGILSMAGALYFIAPNRKPLFASRKVESDKTAEEELSSGGEQSPENEDDNNSKSDENGDDNDSKNDETEAGPQLGGDKIGASKVAEDGELVVLAEEDNKSSEDKDTDESKVSTKDDEQSNEDNATANNQKDENISSENSEENTSDKTLDNNAGSSEKKDPEHSDDEKSQQGQSDDKTTTEDNNGEEESSKKTVSDSENSAKQSESSDEEKEELRKQEEKQMGPTEEEVQHEGAYNPDTGEINWDSPSLGGMAHGPCGEEFKSAFSCFVYSEAEPKGIDCVEKFQHMQDCFRKYPEHYAEQLKETSDDEEPQDKVKVNTIESAPNVSSAKENAAKKAEQSDVKKEPLNEESKP [C296S;C298S]
decreasing interaction	MLRNLVVRNACRNRPSIQVARGLCRHQTRRLMASSPQFGRNSNQEKTAGFIMGILSMAGALYFIAPNRKPLFASRKVESDKTAEEELSSGGEQSPENEDDNNSKSDENGDDNDSKNDETEAGPQLGGDKIGASKVAEDGELVVLAEEDNKSSEDKDTDESKVSTKDDEQSNEDNATANNQKDENISSENSEENTSDKTLDNNAGSSEKKDPEHSDDEKSQQGQSDDKTTTEDNNGEEESSKKTVSDSENSAKQSESSDEEKEELRKQEEKQMGPTEEEVQHEGAYNPDTGEINWDCPSLGGMAHGPCGEEFKSAFSCFVYSEAEPKGIDCVEKFQHMQDCFRKYPEHYAEQLKETSDDEEPQDKVKVNTIESAPNVSSAKENAAKKAEQSDVKKEPLNEESKP [C298S]
